# Experimental data from US20240417436A1 (BRIGHT PEAK THERAPEUTICS, published 2024).
# Bridges are numbered along the chain shown (N, C = ends). Primed or numbered codes have the meaning given here. [ ]: non-standard residue; d: D form. Ygp = O-(8x polyethylene glycol-amino)-tyrosine; Yn3 = O-(9x polyethylene glycol-azido)-tyrosine; cleavable moiety, PEG9 = not defined here; PEG4′ = 4x polyethylene glycol; PEG9″ = 9x polyethylene glycol; hSer = N[C@@H](CCO)C(=O)O; Nle = CCCC[C@H](N)C(=O)O
# T1: IL-2 receptor βγ complex on pan T cells (human, UniProt P14784 27-551; P31785 23-369)
# T1 sequence (looked up) 1: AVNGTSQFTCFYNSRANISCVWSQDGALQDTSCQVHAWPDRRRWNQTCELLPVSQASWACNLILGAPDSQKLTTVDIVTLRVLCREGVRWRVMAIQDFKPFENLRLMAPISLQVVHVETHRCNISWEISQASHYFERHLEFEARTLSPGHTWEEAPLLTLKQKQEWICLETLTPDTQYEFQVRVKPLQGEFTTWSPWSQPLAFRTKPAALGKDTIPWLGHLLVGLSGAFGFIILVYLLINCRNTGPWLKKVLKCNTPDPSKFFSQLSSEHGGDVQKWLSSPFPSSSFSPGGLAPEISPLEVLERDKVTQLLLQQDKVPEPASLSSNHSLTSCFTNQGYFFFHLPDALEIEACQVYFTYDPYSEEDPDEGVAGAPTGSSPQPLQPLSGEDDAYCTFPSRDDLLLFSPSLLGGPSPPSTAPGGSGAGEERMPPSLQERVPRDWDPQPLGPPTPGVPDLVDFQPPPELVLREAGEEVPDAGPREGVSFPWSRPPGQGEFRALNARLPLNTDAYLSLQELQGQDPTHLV
# T1 sequence (looked up) 2: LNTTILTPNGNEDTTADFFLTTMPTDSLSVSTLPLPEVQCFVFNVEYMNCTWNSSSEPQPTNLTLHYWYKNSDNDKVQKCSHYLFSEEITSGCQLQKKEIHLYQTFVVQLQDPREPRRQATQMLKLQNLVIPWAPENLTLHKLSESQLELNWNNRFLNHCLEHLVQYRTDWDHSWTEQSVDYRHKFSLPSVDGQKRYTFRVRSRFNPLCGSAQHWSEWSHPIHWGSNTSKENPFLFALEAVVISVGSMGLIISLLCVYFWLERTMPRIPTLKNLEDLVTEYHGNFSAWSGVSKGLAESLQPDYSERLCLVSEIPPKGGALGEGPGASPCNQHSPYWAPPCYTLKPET
# B1: CMP-300, MMP2 cleaved (ligand)
# chain: APTSSSTKKTQLQLEHLLLDLQEILNGINNYKNPKLTR[Nle]L[hSer][Yn3]KF[Ygp][Nle]PKKATELKHLQCLEEELKPLEEVL[hSer]LAQSKNFHLRPRDLISNINVIVLELKGSETTF[hSer]CEYADETATIVEFLNRWITFSQSIISTLT
# modifications: ends and bridges not checked; also: cleavable moiety between Glu23 side chain and N-terminus cut by MMP2, macrocycle opened, cut site not given here
# B2: CMP-163, MMP2 cleaved (ligand)
# chain: APTSSSTKKTQLQLEHLLLDLQKILNGINNYKNPKLTR[Nle]L[hSer][Yn3]KF[Ygp][Nle]PKKATELKHLQCLEEELKPLEEVL[hSer]LAQSKNFHLRPRDLISNINVIVLELKGSETTF[hSer]CEYADETATIVEFLNRWITFSQSIISTLT
# modifications: not fully specified (residue 23, N-terminus); ends and bridges not checked; also: macrocycle (Lys23 side chain - cleavable peptide - PEG4 - glutaryl - Ala1) cut by MMP2, cut site not given here
# B3: CMP-169 (ligand)
# chain: APTSSSTKKTQLQLEHLLLDLQEILNGINNYKNPKLTR[Nle]L[hSer][Yn3]KF[Ygp][Nle]PKKATELKHLQCLEEELKPLEEVL[hSer]LAQSKNFHLRPRDLISNINVIVLELKGSETTF[hSer]CEYADETATIVEFLNRWITFSQSIISTLT
# modifications: bridge 9-23; not fully specified (residue 9, bridges); ends not checked; also: cleavable peptide of the bridge not defined
# B4: CMP-301 (ligand)
# chain: APTSSSTKKTQLQLEHLLLDLQEILNGINNYKNPKLTR[Nle]L[hSer][Yn3]KF[Ygp][Nle]PKKATELKHLQCLEEELKPLEEVL[hSer]LAQSKNFHLRPRDLISNINVIVLELKGSETTF[hSer]CEYADETATIVEFLNRWITFSQSIISTLT
# modifications: bridge N-23; not fully specified (N-terminus, bridges); ends not checked; also: cleavable peptide of the bridge not defined
# B5: CMP-169, MMP2 cleaved (ligand)
# chain: APTSSSTKKTQLQLEHLLLDLQEILNGINNYKNPKLTR[Nle]L[hSer][Yn3]KF[Ygp][Nle]PKKATELKHLQCLEEELKPLEEVL[hSer]LAQSKNFHLRPRDLISNINVIVLELKGSETTF[hSer]CEYADETATIVEFLNRWITFSQSIISTLT
# modifications: ends and bridges not checked; also: cleavable moiety between Lys9 and Glu23 side chains cut by MMP2, macrocycle opened, cut site not given here
# B6: CMP-300 (ligand)
# chain: APTSSSTKKTQLQLEHLLLDLQEILNGINNYKNPKLTR[Nle]L[hSer][Yn3]KF[Ygp][Nle]PKKATELKHLQCLEEELKPLEEVL[hSer]LAQSKNFHLRPRDLISNINVIVLELKGSETTF[hSer]CEYADETATIVEFLNRWITFSQSIISTLT
# modifications: bridge N-23; not fully specified (N-terminus, bridges); ends not checked; also: cleavable peptide of the bridge not defined
# B7: CMP-164, MMP2 cleaved (ligand)
# chain: APTSSSTKKTQLQLEHLLLDLQKILNGINNYKNPKLTR[Nle]L[hSer][Yn3]KF[Ygp][Nle]PKKATELKHLQCLEEELKPLEEVL[hSer]LAQSKNFHLRPRDLISNINVIVLELKGSETTF[hSer]CEYADETATIVEFLNRWITFSQSIISTLT
# modifications: not fully specified (residue 23, N-terminus); ends and bridges not checked; also: macrocycle (Lys23 side chain - cleavable peptide - glutaryl - Ala1) cut by MMP2, cut site not given here
# B8: CMP-161 (ligand)
# chain: PLGLAGAPTSSSTKKTQLQLEHLLLDLQ[Nle]ILEGINNYKNPKLTR[Nle]L[hSer][Yn3]KF[Ygp][Nle]PKKATELKHLQCLEEELKPLEEVL[hSer]LAQSKNFHLRPRDLISNINVIVLELKGSETTF[hSer]CEYADETATIVEFLNRWITFSQSIISTLT
# modifications: linker N-32 via PEG9″; ends not checked
# B9: CMP-161, MMP2 cleaved (ligand)
# chain: PLGLAGAPTSSSTKKTQLQLEHLLLDLQ[Nle]ILEGINNYKNPKLTR[Nle]L[hSer][Yn3]KF[Ygp][Nle]PKKATELKHLQCLEEELKPLEEVL[hSer]LAQSKNFHLRPRDLISNINVIVLELKGSETTF[hSer]CEYADETATIVEFLNRWITFSQSIISTLT
# modifications: not fully specified; ends and bridges not checked; also: before cut, residues 1..32 linked via PEG9 (Glu32 side chain)
# B10: CMP-162 (ligand)
# chain: APTSSSTKKTQLQLEHLLLDLQKILNGINNYKNPKLTR[Nle]L[hSer][Yn3]KF[Ygp][Nle]PKKATELKHLQCLEEELKPLEEVL[hSer]LAQSKNFHLRPRDLISNINVIVLELKGSETTF[hSer]CEYADETATIVEFLNRWITFSQSIISTLT
# modifications: not fully specified (residue 23); ends and bridges not checked; also: cleavable moiety on Lys23 side chain, structure not given here
# B11: CMP-159 (ligand)
# chain: PLGLAGAPTSSSTKKTQLQLEHLLLDLE[Nle]ILNGINNYKNPKLTR[Nle]L[hSer][Yn3]KF[Ygp][Nle]PKKATELKHLQCLEEELKPLEEVL[hSer]LAQSKNFHLRPRDLISNINVIVLELKGSETTF[hSer]CEYADETATIVEFLNRWITFSQSIISTLT
# modifications: linker N-28 via PEG4′; ends not checked
# B12: CMP-160, MMP2 cleaved (ligand)
# chain: APTSSSTKKTQLQLEHLLLDLQ[Nle]ILEGINNYKNPKLTR[Nle]L[hSer][Yn3]KF[Ygp][Nle]PKKATELKHLQCLEEELKPLEEVL[hSer]LAQSKNFHLRPRDLISNINVIVLELKGSETTF[hSer]CEYADETATIVEFLNRWITFSQSIISTLT
# modifications: ends and bridges not checked; also: cleavable moiety between Glu26 side chain and N-terminus (via PEG9) cut by MMP2, macrocycle opened, cut site not given here
# B13: CMP-160 (ligand)
# chain: APTSSSTKKTQLQLEHLLLDLQ[Nle]ILEGINNYKNPKLTR[Nle]L[hSer][Yn3]KF[Ygp][Nle]PKKATELKHLQCLEEELKPLEEVL[hSer]LAQSKNFHLRPRDLISNINVIVLELKGSETTF[hSer]CEYADETATIVEFLNRWITFSQSIISTLT
# modifications: linker N-26 via cleavable moiety, PEG9; ends not checked; also: cleavable moiety sequence not given here
# B14: CMP-159, MMP2 cleaved (ligand)
# chain: PLGLAGAPTSSSTKKTQLQLEHLLLDLE[Nle]ILNGINNYKNPKLTR[Nle]L[hSer][Yn3]KF[Ygp][Nle]PKKATELKHLQCLEEELKPLEEVL[hSer]LAQSKNFHLRPRDLISNINVIVLELKGSETTF[hSer]CEYADETATIVEFLNRWITFSQSIISTLT
# modifications: not fully specified (bridges); ends and bridges not checked; also: cleaved by MMP2 (macrocycle opened), cut site not given here
# B15: CMP-162, MMP2 cleaved (ligand)
# chain: APTSSSTKKTQLQLEHLLLDLQKILNGINNYKNPKLTR[Nle]L[hSer][Yn3]KF[Ygp][Nle]PKKATELKHLQCLEEELKPLEEVL[hSer]LAQSKNFHLRPRDLISNINVIVLELKGSETTF[hSer]CEYADETATIVEFLNRWITFSQSIISTLT
# modifications: not fully specified (residue 23); ends and bridges not checked; also: cleavable peptide on Lys23 cut by MMP2, remnant stays attached, cut site not given here
# Molecular target: T1, IL-2 receptor βγ complex on pan T cells
# Test: cell-based or functional assay
"Average EC50, pSTAT5 assay in pan T cells, MMP2 cleaved molecule [nM]","Average EC50, pSTAT5 assay in pan T cells, intact molecule [nM]",Binder
1.73,,B1
0.76,,B2
,53.4,B3
,180,B4
5.39,,B5
,94.7,B6
0.61,,B7

# Molecular target: T1, IL-2 receptor βγ complex on pan T cells
# Test: cell-based or functional assay
# Remark: another data set of the same source
"Average EC50, pSTAT5 assay in pan T cells, intact molecule [nM]","Average EC50, pSTAT5 assay in pan T cells, MMP2 cleaved molecule [nM]",Binder
29.4,,B8
,3.59,B9
2.79,,B10
35.5,,B11
,2.21,B12
27.8,,B13
,2.27,B14
,0.758,B15
